Substitutions are numbered along the chain they refer to.
T1: human cANGPTL4 (C-terminal fragment of Angiopoietin-like 4 protein) (human, UniProt Q9BY76 186-406, limits assumed)
T1 construct: domain: C-terminal fragment (cANGPTL4); Purified cANGPTL4 was immobilised by amine coupling on the CM5 chip for SPR and on carboxylated microwell plates for ELISA; also called purified cANGPTL4; human cANGPTL4 antigen
T1 sequence (looked up): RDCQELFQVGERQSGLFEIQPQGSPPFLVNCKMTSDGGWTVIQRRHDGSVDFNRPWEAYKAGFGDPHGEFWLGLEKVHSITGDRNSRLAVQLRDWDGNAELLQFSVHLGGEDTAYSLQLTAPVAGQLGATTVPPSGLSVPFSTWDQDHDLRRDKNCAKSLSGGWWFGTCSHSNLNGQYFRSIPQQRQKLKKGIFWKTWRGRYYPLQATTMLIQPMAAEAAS

B1: murine monoclonal antibody mAb11F6C4 (antibody, V domains shown)
VH: QITLKESGPGILKPSQTLSLTCSFSGFSLSTSGMGVGWIRQPSGKGLEWLAHIWWDDDKYYNPSLKSQLTISKDTSRNQVFLKITSVDTADTATYYCARKDYGSSYDYWGQGTTLTVSS
VL: DIVLTQSPASLAVSLGQRATISCKASQSVDYDGDSYLNWFQQKPGQPPKLLIYTASNLESGIPARFSGSGSGTDFTLNIHPVEEEDAATYYCQQSNEDPWTFGGGTTLEIK
notes: Murine monoclonal antibody, the parent of the humanized antibodies; also called Control 11F6C4; original mouse-derived mAb
B2: Antuzumab 1 (antibody, V domains shown)
VH: QVTLKESGPTLVKPTQTLTLTCTFSGFSLSTSGMGVGWIRQPPGKALEWLAHIWWDDDKYYNPSLKSRLTISKDTSKNQVVLTMTNMDPVDTATYYCARKDYGSSYDYWGQGTTVTVSS
VL: DIVMTQSPLSLPVTPGEPASISCKASQSVDYDGDSYLNWYLQKPGQSPRLLIYTASNLESGVPDRFSGSGSGTDFTLKISRVEAEDVGVYYCFQSNEDPWTFGQGTKLEIK
notes: Humanized monoclonal antibody made in CHO cells; also called ANG49; ANGH3 + ANGK3
B3: Antuzumab 2 (antibody, V domains shown)
VH: B2 VH with V2I, S72T, V81D, N86F, V90W, R99H, T114L
VL: DIQMTQSPSSLSASVGDRVTITCKASQSVDYDGDSYLNWYQQKPGKAPNLLIYTASNLESGVPSRFSGSGSGTDFTLTISSLQPEDFATYYCQQSNEDPWTFGEGTKVEIK
notes: Humanized monoclonal antibody made in CHO cells; also called ANG50; ANGH4 + ANGK4
B4: Antuzumab 3 (antibody, V domains shown)
VH: B2 VH with V2I, S72T, T114L
VL: DIVMTQSPDSLAVSLGERATINCKASQSVDYDGDSYLNWYQQKPGQPPKLLIYTASNLESGVPDRFSGSGSGTDFTLTISSLQAEDVAVYYCQQSNEDPWTFGQGTKVEIK
notes: Humanized monoclonal antibody made in CHO cells; also called ANG27; ANGH1 + ANGK1

Biological target: T1, human cANGPTL4 (C-terminal fragment of …)
Experiment: SPR (BIACORE 3000), cANGPTL4 amine-coupled to CM5 chip, antibody as analyte
Protocol: Surface Plasmon Resonance (SPR): Sensor CM5 chips and amine coupling kits were from GE Healthcare. Purified cANGPTL4 was immobilized onto a CM5-carboxylated dextran sensor chip by amine coupling using the Surface Prep Module of BIACORE 3000 as recommended by the manufacturer (BIAcore). Antuzumab (0.16, 0.32, 0.63, 1.25, 2.50, and 5.0 μm) diluted and buffered with 50 mm Tris, pH 8.0, was introduced into the cANGPTL4-conjugated CM5 chip at a flow rate of 5 μI/min for 10 min with running buffer (50 mm Tris, pH 8.0, 100 mm NaCl). After incubation for 45 s, the chamber was washed with the same buffer, and the bound molecules were subsequently eluted using 10 mm glycine, pH 6.0. The CM5 chip was reused after washing with running buffer for 10 min at 20 μI/min. Each sensorgram was corrected by subtracting a sensorgram obtained from a reference flow cell with no immobilized protein. Global fitting of the SPR data was used to determine the association (Kₐₛₛ) and dissociation (Kdiss) with Scrubber 2 software. Values are given as the mean±S.D. of three independent preparations of Antuzumab.

| Fold increase (affinity against control 11F6C4) [fold] | Kd [nM] | koff [s⁻¹] | kon [M⁻¹ s⁻¹] | Binder |
| --- | --- | --- | --- | --- |
| 1 | 8.28 | 0.000905 | 109000 | B1 |
| 7.86 | 1.05 | 0.000693 | 658000 | B2 |
| 5.37 | 1.54 | 0.000764 | 495000 | B3 |
| 1.85 | 4.47 | 0.000948 | 212000 | B4 |

From patent US20230090156A1 (NANYANG TECHNOLOGICAL UNIVERSITY, published 2023)
